Biological target: T1, Vfr (Pseudomonas aeruginosa UCBPP-PA14) (UniProt P55222)
T1 sequence: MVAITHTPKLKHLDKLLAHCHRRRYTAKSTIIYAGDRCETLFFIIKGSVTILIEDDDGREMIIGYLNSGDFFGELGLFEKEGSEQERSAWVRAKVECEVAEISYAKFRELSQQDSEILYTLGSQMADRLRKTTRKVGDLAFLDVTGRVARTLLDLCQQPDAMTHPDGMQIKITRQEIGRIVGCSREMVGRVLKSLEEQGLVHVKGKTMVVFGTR
Experiment: EMSA

For “TCTGACCCATCCGCGCGACTGGCCCCCGGGCCGGTCGCTCCCCCGGGACGACCGTCGGTCCCGGATCGGCGCGCTTTCCTGAACTATCGATCAGCTGTCACTGGCCGCCGCGCAAACGCTTGGTTAAGATTCCGCCAGCAACCTGGCCACCCGCCATTCCCCAGGCGGAAAGCTCACGAGGCCGAGCCGGGACGAAAATACACAGGGATCCTCTCCAGCGCATG (double strand) [PcyaB]”, the binding was “no binding”.

From article PMC9563714
